Data reported in patent US11035860B2, “Auto-active and intracellular mutant of MET” (Stichting Katholieke Universiteit, priority 2014, dated 2021).
“Also recorded” adds a separate entry of the source.

Key:
wtMET = biological target: T1, wtMET (Homo sapiens, UniProt P08581); assay: MET phosphorylation in serum-starved A549 cells (western blot); assay type: cell-based; conditions: FIG. 1B, FIG. 5
T1 construct: in A549 cells the matured, cleaved MET protein was the predominant form; endogenous in cells; host or cells: A549 cells, serum-starved
Method: (§1) All cell lines were maintained at 37° C. in the presence of 5% CO2. To examine HGF-induced MET activation, E98 and A549 cells were seeded in 6 wells plates. The next day cells were serum-starved overnight. The following day cells were treated for 10 minutes (min) with HGF (50 ng/mL, Miltenyi Biotec, Bergisch Gladbach, Germany).
(§2) Cell lysates were prepared using RIPA buffer containing protease and phosphatase inhibitors (Cell Signaling Technology, CST, Danvers, Mass., USA). RIPA extracts (20-40 μg per lane) and His-tagged proteins from conditioned media (equivalent of 20 μl conditioned medium) were subjected to PAGE on 8-10% polyacrylamide gels and western blotting according to standard procedures. Nitrocellulose blots (Whatman Optitran BA-S85, GE Healthcare, Little Chalfont, UK) were blocked with PBS/Odyssey Blocking Buffer (LI-COR Biosciences, Lincoln, Nebr., USA) (1:1), followed by overnight incubation with primary antibodies at 4° C. […] Biotin groups and primary antibodies were visualized using respectively streptavidin-680 (Molecular Probes, Life Technology) and appropriate secondary antibodies [goat-anti-rabbit-IRDye800 (Rockland Immunochemicals, Gilbertsville, Pa., USA) or Alexa Fluor 680 goat-anti-mouse IgG (Molecular Probes, Life Technologies)]. Blots were scanned on the Odyssey imager (LI-COR Biosciences).

AKT [1] = assay: AKT phosphorylation in A549 cells (western blot); assay type: cell-based, human; conditions: FIG. 5
Method: (§3) The E98 cell line and xenograft model and genetic analysis thereof have been described before (Caretti et al., 2011; Claes et al., 2008). E98, U87, A549, HEK-293T and TOV-112D cells were cultured in DMEM+4.5 g/L glucose medium (PAA Laboratories, Pasching, Austria) supplemented with 10% fetal calf serum (FCS) (PAA) and gentamycin (40 μg/mL). All cell lines were maintained at 37° C. in the presence of 5% CO2. To examine HGF-induced MET activation, E98 and A549 cells were seeded in 6 wells plates. The next day cells were serum-starved overnight. The following day cells were treated for 10 minutes (min) with HGF (50 ng/mL, Miltenyi Biotec, Bergisch Gladbach, Germany). In some experiments, prior to HGF incubation cells were incubated with the anti-MET llama VHH G2 (Heukers et al., 2014) or cabozantinib (XL-184, Exelixis, San Francisco, Calif.) for 60 min.
(§4) Cell lysates were prepared using RIPA buffer containing protease and phosphatase inhibitors (Cell Signaling Technology, CST, Danvers, Mass., USA). RIPA extracts (20-40 μg per lane) and His-tagged proteins from conditioned media (equivalent of 20 μl conditioned medium) were subjected to PAGE on 8-10% polyacrylamide gels and western blotting according to standard procedures. […]

AKT [2] = assay: AKT phosphorylation in E98 cells (western blot); assay type: cell-based, human; conditions: serum-starved E98 cells; FIG. 5
Method: as §3, §4

METΔ7-8 = biological target: T2, METΔ7-8 (Homo sapiens, UniProt P08581, DEL622-701); assay: MET phosphorylation in serum-starved E98 cells (western blot); assay type: cell-based; conditions: FIG. 5
T2 construct: the majority of MET protein was in a 180 kDa phosphorylated form, corresponding to the uncleaved truncated preform; endogenous in cells; host or cells: E98 glioma cells, serum-starved
Method: as §1, §2

lung cancer = conditions: phase II study, lung cancer (Spigel et al., 2013); cited from earlier work

activation of the minority of processed β-fragment of MET (METΔ7-8) | overall MET phosphorylation levels (METΔ7-8; HGF 50 ng/mL 10 min, G2 or cabozantinib 60 min, FIG. 1B) | Substance | MET phosphorylation (wtMET) | levels of pAKT (AKT [1]) | levels of pAKT (AKT [2]) | primary end point of prolonged survival (lung cancer)
slight activation | did not further increase | HGF: ligand Hepatocyte Growth Factor (HGF, Scatter Factor) of MET | required for MET activation; also recorded: induced MET phosphorylation | increased levels of pAKT | neither G2 nor HGF treatment resulted in altered levels | 
 |  | MetMab: antibody; MET activation inhibitor tested in a phase II study for lung cancer |  |  |  | failed to meet the primary end point
